Patent WO2012019024A2 (dated 2012)

Columns and labels:
human HER3 [1] = target: T1, human HER3 (human, UniProt P21860 20-1342); test: cell-based or functional assay
human HER3 [2] = target: T1, human HER3; test: Kd named as the concentration of the biotinylated reference antibody in the flow cytometry competition assay
human HER3 [3] = target: T1, human HER3; test: flow cytometry competition on SKBR3 cells, antibody varied against 10 nM biotinylated HRG1β1 ligand
[4] = target: macaque HER3 extracellular domain on 300-19 cells (pSRa-chiHER3) (macaque; human); test: cell-based or functional assay
human HER3 [5] = target: T1, human HER3; test: flow cytometry on SKBR3 cells, apparent Kd
Target sequence in this assay (P21860 20-1342 limits assumed): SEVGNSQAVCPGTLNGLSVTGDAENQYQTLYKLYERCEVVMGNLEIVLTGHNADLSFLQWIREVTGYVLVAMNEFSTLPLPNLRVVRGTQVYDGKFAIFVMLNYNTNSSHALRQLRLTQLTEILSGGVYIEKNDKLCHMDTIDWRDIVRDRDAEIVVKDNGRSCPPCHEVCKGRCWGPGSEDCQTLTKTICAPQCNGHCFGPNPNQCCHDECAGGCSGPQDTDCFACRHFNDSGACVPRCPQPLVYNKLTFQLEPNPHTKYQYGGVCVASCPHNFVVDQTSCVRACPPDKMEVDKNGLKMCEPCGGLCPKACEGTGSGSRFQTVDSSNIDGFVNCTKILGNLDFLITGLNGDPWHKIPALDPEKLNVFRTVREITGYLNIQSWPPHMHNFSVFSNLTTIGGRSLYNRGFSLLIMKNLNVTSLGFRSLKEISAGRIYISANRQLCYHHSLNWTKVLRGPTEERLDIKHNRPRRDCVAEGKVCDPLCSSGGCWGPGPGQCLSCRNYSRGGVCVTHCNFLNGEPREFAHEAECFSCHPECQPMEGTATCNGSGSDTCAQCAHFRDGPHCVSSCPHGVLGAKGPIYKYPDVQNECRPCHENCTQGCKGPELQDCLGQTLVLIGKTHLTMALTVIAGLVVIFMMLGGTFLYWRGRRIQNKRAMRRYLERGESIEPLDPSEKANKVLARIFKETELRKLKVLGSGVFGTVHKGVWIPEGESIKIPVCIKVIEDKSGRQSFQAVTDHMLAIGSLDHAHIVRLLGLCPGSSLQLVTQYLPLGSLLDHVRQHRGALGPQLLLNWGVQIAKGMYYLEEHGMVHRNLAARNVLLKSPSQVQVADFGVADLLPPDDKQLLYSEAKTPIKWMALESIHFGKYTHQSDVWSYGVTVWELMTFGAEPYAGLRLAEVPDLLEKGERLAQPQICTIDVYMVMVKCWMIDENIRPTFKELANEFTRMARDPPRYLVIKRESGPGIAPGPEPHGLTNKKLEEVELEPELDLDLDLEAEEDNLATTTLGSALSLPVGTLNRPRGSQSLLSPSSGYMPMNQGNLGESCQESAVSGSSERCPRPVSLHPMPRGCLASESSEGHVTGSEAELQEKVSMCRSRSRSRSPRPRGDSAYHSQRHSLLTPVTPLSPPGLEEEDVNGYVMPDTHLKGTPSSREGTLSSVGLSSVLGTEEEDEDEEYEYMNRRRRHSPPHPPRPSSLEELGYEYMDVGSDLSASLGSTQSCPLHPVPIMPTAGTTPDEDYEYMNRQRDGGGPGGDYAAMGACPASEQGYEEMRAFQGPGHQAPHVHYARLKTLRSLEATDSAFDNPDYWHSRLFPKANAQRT

[6] = target: macaque HER3 extracellular domain on 300-19 cells (pSRa-chiHER3) (macaque; human); test: flow cytometry on maHER3-overexpressing 300-19 cells, apparent Kd
human HER3 [7] = target: T1, human HER3; test: flow cytometry on SKBR3 cells (endogenous HER3), apparent Kd
[8] = target: macaque HER3 extracellular domain on 300-19 cells (pSRa-chiHER3) (macaque; human); test: flow cytometry on 300-19 cells expressing maHER3 extracellular domain, apparent Kd
human HER3 [9] = target: T1, human HER3; test: flow cytometry competition on SKBR3 cells, naked antibody varied, competitor biotinylated muHER3-8
human HER3 [10] = target: T1, human HER3; test: flow cytometry on huHER3-overexpressing 300-19 cells, apparent Kd (EC50 of the binding curve)
[11] = target: T2, chL1-S1 chimeric human/murine HER-3 ECD Fc fusion (human; murine, UniProt P21860 20-632); test: ELISA on chL1-S1 Fc (Figure 30)
T2 construct: also called chLl-Sl; chimeric ECD comprising human L1-S1 domains and murine L2-S2 domains; not shown: murine IgG2A hinge, CH2, and CH3 region (pmuFc2ANL vector)
T2 chain: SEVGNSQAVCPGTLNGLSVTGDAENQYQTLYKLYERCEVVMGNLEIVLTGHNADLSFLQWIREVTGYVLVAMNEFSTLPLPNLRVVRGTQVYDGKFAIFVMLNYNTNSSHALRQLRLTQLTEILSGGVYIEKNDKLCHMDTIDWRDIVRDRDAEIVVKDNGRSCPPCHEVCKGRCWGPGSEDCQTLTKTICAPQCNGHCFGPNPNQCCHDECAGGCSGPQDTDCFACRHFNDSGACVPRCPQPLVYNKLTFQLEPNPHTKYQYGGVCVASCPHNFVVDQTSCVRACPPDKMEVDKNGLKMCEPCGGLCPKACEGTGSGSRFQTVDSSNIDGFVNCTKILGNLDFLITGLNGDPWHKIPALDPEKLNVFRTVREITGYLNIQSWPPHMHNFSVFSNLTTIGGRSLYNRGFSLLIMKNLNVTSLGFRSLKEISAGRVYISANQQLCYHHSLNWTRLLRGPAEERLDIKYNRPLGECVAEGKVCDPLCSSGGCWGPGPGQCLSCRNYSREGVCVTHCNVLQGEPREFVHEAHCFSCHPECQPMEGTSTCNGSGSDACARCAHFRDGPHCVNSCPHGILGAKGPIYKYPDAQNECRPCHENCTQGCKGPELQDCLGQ

[12] = target: T3, murine HER-3 ECD Fc fusion (murine, UniProt Q61526 20-632); test: ELISA on murine HER-3 ECD Fc (Figure 29)
T3 construct: 'similarly constructed' to the human fusion; also called murine HER-3-Fc; not shown: murine IgG2A hinge, CH2, and CH3 region (pmuFc2ANL vector)

[13] = target: T4, human HER-3 ECD Fc protein (human; murine, UniProt P21860 20-632); test: ELISA on human HER-3 ECD Fc (Figure 28)
T4 construct: also called Fc fusion of human HER-3; not shown: murine IgG2A hinge, CH2, and CH3 region (pmuFc2ANL vector)

human HER3 [14] = target: T1, human HER3; test: flow cytometry on huHER3-expressing 300-19 cells (Figure 15)
human HER3 [15] = target: T1, human HER3; test: flow cytometry on huHER3-expressing 300-19 cells
human HER3 [16] = target: T1, human HER3; test: flow cytometry on huHER3-expressing 300-19 cells, apparent Kd, comparison of murine and humanized antibody
human HER3 [17] = target: T1, human HER3; test: flow cytometry competition on SKBR3 cells, competitor biotinylated muHER3-8

Chain of macaque HER3 extracellular domain on 300-19 cells (pSRa-chiHER3) (macaque; human) (P21860 644-1342, form in doubt): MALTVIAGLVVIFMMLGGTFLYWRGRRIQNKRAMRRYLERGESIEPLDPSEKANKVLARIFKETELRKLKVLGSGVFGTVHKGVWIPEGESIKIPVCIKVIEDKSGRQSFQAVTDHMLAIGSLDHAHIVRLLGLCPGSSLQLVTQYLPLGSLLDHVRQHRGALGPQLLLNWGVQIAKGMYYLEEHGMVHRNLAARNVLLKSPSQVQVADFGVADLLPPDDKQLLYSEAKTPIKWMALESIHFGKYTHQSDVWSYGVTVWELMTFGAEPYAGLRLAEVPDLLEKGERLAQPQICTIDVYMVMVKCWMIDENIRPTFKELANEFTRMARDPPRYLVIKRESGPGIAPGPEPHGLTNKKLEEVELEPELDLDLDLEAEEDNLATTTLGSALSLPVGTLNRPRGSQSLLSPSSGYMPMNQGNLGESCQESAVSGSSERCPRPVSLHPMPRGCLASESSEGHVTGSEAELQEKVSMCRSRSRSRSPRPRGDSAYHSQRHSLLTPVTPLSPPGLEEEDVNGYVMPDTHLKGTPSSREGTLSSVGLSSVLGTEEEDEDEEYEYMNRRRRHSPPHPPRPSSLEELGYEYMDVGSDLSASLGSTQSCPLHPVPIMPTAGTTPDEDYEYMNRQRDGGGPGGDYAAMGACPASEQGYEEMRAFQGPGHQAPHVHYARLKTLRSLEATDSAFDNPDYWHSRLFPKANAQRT

Molecule: chKTI-SPDB-DM4 conjugate (antibody)
- in vitro cytotoxicity EC50 (WST-8 surviving fraction), huHER3-overexpressing 300-19 cells (human HER3 [1]): 4.4 nM

Molecule: U3-Pharma/Amgen's U1-59 antibody
- Kd (human HER3 [2]): 1 nM
- EC50 (human HER3 [3]): 2.2 nM

Molecule: chKTI-SMCC-DM1 conjugate (antibody)
- in vitro cytotoxicity EC50 (WST-8 surviving fraction), huHER3-overexpressing 300-19 cells (human HER3 [1]): 53 nM

B1: huHER3-8-SMCC-DM1 conjugate (antibody, V domains shown)
VH: QVQLQESGPGLVKPSQSLSLTCTVTGSSITSDYAWNWIRQHPGNKLEWMGFISYSGSTSYNPSLKSRISITRDTSKNQFFLHLSSVTAADTATYYCSRRLGRLYYFDYWGQGTLLTVSS
VL: EIVMTQSPATLSVTPGDRVSLSCRASQSINDYLHWYQQKPGQSPRLLIKFASHSISGIPDRFSGSGSGSDFTLTISSVEPEDVGVYYCQNGHSFPWTFGGGTKLEIKR
modifications: SMCC-DM1 maytansinoid linked to the antibody, 3.5-4 DM1 molecules per antibody; attachment residues and chain not stated
notes: Immunoconjugate of huHER3-8 (v.1.00) with human constant regions; also called huHER3-8-SMCC-DMl
- in vitro cytotoxicity EC50 (WST-8 surviving fraction), huHER3-overexpressing 300-19 cells (human HER3 [1]): 0.17 nM
- in vitro cytotoxicity EC50 (WST-8 surviving fraction), maHER3-overexpressing 300-19 cells [4]: 0.059 nM
- Kd (human HER3 [5]): 0.49 nM
- Kd [6]: 0.29 nM

B2: muHER3-8 antibody (antibody, mouse IgG1, V domains shown)
VH: DVQLQESGPGLVTPSQSLSLTCTVTGSSITSDYAWNWIRQFPGNKLEWMGFISYSGSTSYNPSLKSRISITRDTSKNQFFLHLSSVTSEDTATYYCSRKLGRLYYFDYWGQGTTLTVSS
VL: DIVMTQSPATLSVTPGDRVSLSCRASQSINDYLHWYQQKSHESPRLLIKFASHSISGIPSRFSGSGSGSDFTLTINSVEPEDVGVYYCQNGHSFPWTFGGGTKLEIKR
notes: also called HER3-8 (murine)
- HRG1β1-induced AKT phosphorylation (pAKT level, % of ligand-only control), whole cell ELISA, MCF7 cells, 10 µg/ml antibody (human HER3 [1]): < 50%
- HRG1β1-induced HER3 phosphorylation (pHER3 level, % of ligand-only control), whole cell ELISA, MCF7 cells, 10 µg/ml antibody (human HER3 [1]): < 20%
- HRG1β1-induced MCF7 cell proliferation (WST-8, % of ligand-only control), 10 µg/ml antibody (human HER3 [1]): 40%
- Kd (human HER3 [7]): 0.31 nM
- Kd [8]: 0.24 nM
- EC50 (human HER3 [9]): 0.76 nM
- Kd (human HER3 [2]): 0.2 nM
- EC50 (human HER3 [3]): 0.29 nM
- Kd (human HER3 [10]): 0.23 nM

B3: huHER3-3 antibody (antibody, V domains shown)
VH: QVQLVQPGAEVVKPGASVKMSCKASGYTFTDYWIHWVKQRPGQGLEWIGAIDTDTYTSYNQKFQGKATLTVDESSSTAYMQLSSLTSEDSAVYYCARSLLRLLYFDYWGQGTTLTVSS
VL: EIVMTQSPATLSVTPGDRVTLSCRASQSITDYLHWYQQKPGQSPRLLIKFASQSISGIPDRFSGSGSGSDFTLSISSVEPEDVGVYYCQNGHSFPLTFGQGTKLELKR
notes: Recombinant humanized antibody with human constant regions (pAbGlNeo / pAbKZeo plasmids), expressed in HEK 293T; also called humanized (resurfaced) HER3-3
- binding result [11]: binds
- binding result [12]: binds
- binding result [13]: binds
- binding result (human HER3 [14]): binds

B4: huHER3-8-SPDB-DM4 conjugate (antibody, V domains shown)
VH: QVQLQESGPGLVKPSQSLSLTCTVTGSSITSDYAWNWIRQHPGNKLEWMGFISYSGSTSYNPSLKSRISITRDTSKNQFFLHLSSVTAADTATYYCSRRLGRLYYFDYWGQGTLLTVSS
VL: EIVMTQSPATLSVTPGDRVSLSCRASQSINDYLHWYQQKPGQSPRLLIKFASHSISGIPDRFSGSGSGSDFTLTISSVEPEDVGVYYCQNGHSFPWTFGGGTKLEIKR
modifications: SPDB-DM4 maytansinoid linked to the antibody, 3.5-4 DM4 molecules per antibody; attachment residues and chain not stated
notes: Immunoconjugate of huHER3-8 (v.1.00) with human constant regions
- in vitro cytotoxicity EC50 (WST-8 surviving fraction), huHER3-overexpressing 300-19 cells (human HER3 [1]): 0.18 nM
- in vitro cytotoxicity EC50 (WST-8 surviving fraction), maHER3-overexpressing 300-19 cells [4]: 0.099 nM
- Kd (human HER3 [5]): 0.29 nM
- Kd [6]: 0.23 nM

B5: huHER3-3-SMCC-DM1 conjugate (antibody, V domains shown)
VH: QVQLVQPGAEVVKPGASVKMSCKASGYTFTDYWIHWVKQRPGQGLEWIGAIDTDTYTSYNQKFQGKATLTVDESSSTAYMQLSSLTSEDSAVYYCARSLLRLLYFDYWGQGTTLTVSS
VL: EIVMTQSPATLSVTPGDRVTLSCRASQSITDYLHWYQQKPGQSPRLLIKFASQSISGIPDRFSGSGSGSDFTLSISSVEPEDVGVYYCQNGHSFPLTFGQGTKLELKR
modifications: SMCC-DM1 maytansinoid linked to the antibody, 3.5-4 DM1 molecules per antibody; attachment residues and chain not stated
- in vitro cytotoxicity EC50 (WST-8 surviving fraction), huHER3-overexpressing 300-19 cells (human HER3 [1]): 0.19 nM

B6: huHER3-8-PEG4-mal-DM1 conjugate (antibody, V domains shown)
VH: QVQLQESGPGLVKPSQSLSLTCTVTGSSITSDYAWNWIRQHPGNKLEWMGFISYSGSTSYNPSLKSRISITRDTSKNQFFLHLSSVTAADTATYYCSRRLGRLYYFDYWGQGTLLTVSS
VL: EIVMTQSPATLSVTPGDRVSLSCRASQSINDYLHWYQQKPGQSPRLLIKFASHSISGIPDRFSGSGSGSDFTLTISSVEPEDVGVYYCQNGHSFPWTFGGGTKLEIKR
modifications: PEG4-mal-DM1 maytansinoid linked to the antibody, 3.5-4 maytansinoid molecules per antibody; attachment residues and chain not stated
notes: Immunoconjugate of huHER3-8 (v.1.00) with human constant regions; also called huHER3-8-PEG-mal-DM1; huHER3-8-PEG4-Mal-DMl
- in vitro cytotoxicity EC50 (WST-8 surviving fraction), maHER3-overexpressing 300-19 cells [4]: 0.045 nM
- Kd (human HER3 [5]): 0.27 nM
- Kd [6]: 0.28 nM

B7: huHER3-8v.1.00 antibody (antibody, V domains shown)
VH: QVQLQESGPGLVKPSQSLSLTCTVTGSSITSDYAWNWIRQHPGNKLEWMGFISYSGSTSYNPSLKSRISITRDTSKNQFFLHLSSVTAADTATYYCSRRLGRLYYFDYWGQGTLLTVSS
VL: EIVMTQSPATLSVTPGDRVSLSCRASQSINDYLHWYQQKPGQSPRLLIKFASHSISGIPDRFSGSGSGSDFTLTISSVEPEDVGVYYCQNGHSFPWTFGGGTKLEIKR
notes: Recombinant humanized antibody with human constant regions; also called huHER3-8 naked antibody
- fold increase of binding affinity against muHER3-8 (human HER3 [15]): ~2 fold
- EC50 (human HER3 [9]): 0.24 nM
- binding result [11]: binds
- Kd (human HER3 [5]): 0.14 nM
- Kd [6]: 0.19 nM
- Kd (human HER3 [16]): 0.12 nM

B8: huHER3-8v.1.01 antibody (antibody, V domains shown)
VH: QVQLQESGPGLVKPSQSLSLTCTVTGSSITSDYAWNWIRQHPGNKLEWMGFISYSGSTSYNPSLKSRISITRDTSKNQFFLHLSSVTAADTATYYCSRKLGRLYYFDYWGQGTLLTVSS
VL: EIVMTQSPATLSVTPGDRVSLSCRASQSINDYLHWYQQKPGQSPRLLIKFASHSISGIPDRFSGSGSGSDFTLTISSVEPEDVGVYYCQNGHSFPWTFGGGTKLEIKR
notes: Recombinant humanized antibody with human constant regions; murine lysine 95 of heavy chain CDR3 retained
- binding result (human HER3 [17]): binds

B9: muHER3-10 antibody (antibody, mouse IgG1, V domains shown)
VH: EVQLQQSGPELVKPGVSMKISCKASGYSFTDYTMNWVKQSHGKNLEWIGLINPYNDITAYNQKFKGKATLSVNKSSSTAYMELLSLTSEDSAVYYCARRGPRGAWFAYWGQGTLVTVSA
VL: NIVLTQSPASLAVSLGQRATISCRASTSVYNYGNSFMHWYQQMPGQPPKLLIYLASNLESGVPARFSGSGSRTDFTLTIDPVEADDAATYYCQQNSEDPWTFGGGTKLEIKR
notes: also called HER3-10 (murine)
- HRG1β1-induced AKT phosphorylation (pAKT level, % of ligand-only control), whole cell ELISA, MCF7 cells, 10 µg/ml antibody (human HER3 [1]): < 50%
- HRG1β1-induced HER3 phosphorylation (pHER3 level, % of ligand-only control), whole cell ELISA, MCF7 cells, 10 µg/ml antibody (human HER3 [1]): < 20%
- Kd (human HER3 [7]): 0.052 nM
- Kd [8]: 0.042 nM
- Kd (human HER3 [10]): 0.068 nM

B10: muHER3-3 antibody (antibody, mouse IgG1, kappa, V domains shown)
VH: QVQLQQPGAELVMPGASVKMSCKASGYTFTDYWIHWVKQRPGQGLEWIGAIDTDTYTSYNQQFKGKATLTVDESSSTAYMQLSSLTSEDSAVYYCARSLLRLLYFDYWGQGTTLTVSS
VL: DIVMTQSPATLSVTPGDRVSLSCRASQSITDYLHWYQQKSHESPRLLIKFASQSISGIPSRFSGSGSGSDFTLSINSVEPEDVGVYYCQNGHSFPLTFGAGTKLELKR
notes: also called HER3-3 (murine)
- HRG1β1-induced AKT phosphorylation (pAKT level, % of ligand-only control), whole cell ELISA, MCF7 cells, 10 µg/ml antibody (human HER3 [1]): < 50%
- HRG1β1-induced HER3 phosphorylation (pHER3 level, % of ligand-only control), whole cell ELISA, MCF7 cells, 10 µg/ml antibody (human HER3 [1]): < 20%
- Kd (human HER3 [7]): 0.21 nM
- Kd [8]: 0.14 nM
- EC50 (human HER3 [3]): 0.32 nM
- Kd (human HER3 [10]): 0.3 nM
